Values quoted from earlier work as cited in article PMC8480781.

How the values were obtained:
Lys66 = Lys66 (UniProt position 148, FTKKMKENAKK); assay: potentiometry; conditions: PHS V66K; state not stated
Glu66 = Glu66 (UniProt position 148, FTKKMEENAKK); assay: stability; conditions: PHS V66E; state not stated

Substance	pKa (Lys66)	pKa (Glu66)
Staphylococcal nuclease PHS V66K (Staphylococcus aureus; P117G;H124L;S128A;V66K)	6.25–6.45	–
Staphylococcal nuclease PHS V66E (Staphylococcus aureus; P117G;H124L;S128A;V66E)	–	8.73–9.28
